Target: the molecule itself
Assay: SDS-PAGE and Western blot; recombinant protein extracts (bacterial inclusion bodies in 1 M L-Arg pH 8.0, and soluble proteins purified by Ni2+-NTA) on 15% SDS-PAGE, immunoblotted with anti-His.IgG

B1: 10xHis-Xa_(SITE)-α-globin-HA (natural protein)
chain: not shown
notes: A factor Xa site (Xa_(SITE), from pET-16b) lies between the 10xHis tag and α-globin. ~18.7 kDa as printed; also called α-monomer; recombinant α-globin chain; source: E. coli CD43 (DE3), pET-16b; also as bacterial inclusion bodies dissolved in 1 M L-Arg; not shown: 10xHis, N-terminal, kept; HA, C-terminal, kept
  binding result: binds

Reference: article PMC8290593, “PTD-mediated delivery of α-globin chain into Κ-562 erythroleukemia cells and α-thalassemic (HBH) patients’ RBCs ex vivo in the frame of Protein Replacement Therapy” (Journal of Biological Research, 2021)
